Experiments:
[1] = test system: PEX7–GFP influx into YG hydrogel; test: Influx of PEX7–GFP into YG hydrogel in the presence of PEX39 (Fig. 6f-i); format: biochemical, yeast; conditions: for Percent PEX7-GFP influx (+ PTS2 peptide + PEX5-21) / Percent PEX7-GFP influx (+ PTS2 peptide + PEX5S) / Percent PEX7-GFP influx: 60 min; for Percent PEX7-GFP influx: PEX7-GFP without PTS2 peptide/PEX5
Procedure: Fig. 6 PEX39 can extract PEX7 from the YG phase. a, YG hydrogels were prepared in a glass-bottomed dish and pre-equilibrated with PEX7–GFP. PEX39 was then added to the buffer and a point-scanning confocal microscope was used to follow the PEX7–GFP fluorescence over time. b, PEX7–GFP signal in the gel over time at the indicated molar ratios of wild-type PEX39 (relative to PEX7). The mean (bold line) and range (shading) of three experiments are shown. c, As in b using a fourfold excess of wild-type (WT) PEX39 or mutants harbouring alanines in place of the APH (∆APH), the RPWE motif (∆RPWE) or both (∆APH + ∆RPWE). d, As in b using PEX7–GFP or PEX5–GFP and a fourfold excess of wild-type PEX39. e, As in b using a fourfold excess of PTS2 peptide and the PEX7-binding chimaeric receptor PEX5-21 (left) or PTS2 peptide and the non-PEX7-binding receptor isoform PEX5S (right). Wild-type PEX39 was titrated as indicated. f, YG hydrogel droplets were incubated with PEX7–GFP in the presence of PEX39. The effect of PEX39 on the influx of PEX7–GFP into the gel was then assessed using a point-scanning confocal microscope. g, PEX7–GFP influx in the presence of the indicated molar ratios of wild-type PEX39 (relative to PEX7) with or without a fourfold excess of PTS2 peptide and either PEX5S or PEX5-21. The mean (bars) and individual values (circles) of three experiments are shown. h, As in g using PEX7–GFP or PEX5–GFP and the indicated molar ratios of wild-type PEX39. i, As in g using wild-type PEX39 or the indicated mutants. Source numerical data are provided. Source data
A solution of the purified wild-type YG-domain polypeptide (or the variant lacking the KPWE motif) was concentrated to 2 mM in 50 mM HEPES·NaOH pH 7.8 at RT, 2 M urea and 2 mM TCEP. Aliquots of 2 µl were then spotted on the bottom of multiple wells of a 96-well glass-bottomed plate (Cellvis, P96-1.5H-N), which was then sealed with a gas-impermeable AlumaSeal II film (Hampton Research, HR8-069) to prevent desiccation and incubated at RT for 24 h. Before each assay, the resulting gels were equilibrated overnight at RT in a 100-fold excess of Assay Buffer (25 mM HEPES·NaOH pH 7.8 at RT, 150 mM NaCl and 1 mM TCEP). A 0.5 µM solution of fluorescently labelled protein in Assay Buffer was then added to the samples, with or without additional components at the concentrations indicated in the text, and incubated at RT. Gels were imaged at the times indicated in the text using a Nikon A1R point-scanning confocal system consisting of an inverted Nikon Eclipse Ti microscope and a Nikon ×20 0.75 NA Plan Apo air objective. The objective was centred on the gel edge and focus was maintained 5 µm above the glass surface using the Nikon Perfect Focus System. Fluorescence was excited through a 405/488/561/647 quad-band dichroic (Chroma), using a 488-nm solid-state laser (Coherent) and a galvano scanner. A 50-nm emission band was collected on a gallium arsenide phosphide detector, using an ET525/50m (525 ± 25 nm) single-band bandpass filter (Chroma) and a pinhole dilated to 0.9 Airy units. Images were acquired using the Nikon NIS-Elements software with a pixel size of 1 µm and a 12-bit digitizer. Imaging parameters were configured to maximize the SNR while avoiding saturation. All samples intended to be compared were imaged using identical acquisition settings.

[2] = test system: PEX5–GFP influx into YG hydrogel; test: Influx of PEX5–GFP into YG hydrogel in the presence of PEX39 (Fig. 6h); format: biochemical, Xenopus laevis
Procedure: Fig. 6 PEX39 can extract PEX7 from the YG phase. a, YG hydrogels were prepared in a glass-bottomed dish and pre-equilibrated with PEX7–GFP. PEX39 was then added to the buffer and a point-scanning confocal microscope was used to follow the PEX7–GFP fluorescence over time. b, PEX7–GFP signal in the gel over time at the indicated molar ratios of wild-type PEX39 (relative to PEX7). […] The effect of PEX39 on the influx of PEX7–GFP into the gel was then assessed using a point-scanning confocal microscope. g, PEX7–GFP influx in the presence of the indicated molar ratios of wild-type PEX39 (relative to PEX7) with or without a fourfold excess of PTS2 peptide and either PEX5S or PEX5-21. […]
A solution of the purified wild-type YG-domain polypeptide (or the variant lacking the KPWE motif) was concentrated to 2 mM in 50 mM HEPES·NaOH pH 7.8 at RT, 2 M urea and 2 mM TCEP. […] Fluorescence was excited through a 405/488/561/647 quad-band dichroic (Chroma), using a 488-nm solid-state laser (Coherent) and a galvano scanner. […]

[3] = test system: yeast PEX7; test: Bead-binding assay: PEX39 and PEX7 (Fig. 5c, Extended Data Fig. 9a); set-up: species or system yeast (S. cerevisiae); conditions: PEX39-coated beads
Source text: (§1) Cysteine-containing peptides were covalently conjugated to thiol-reactive SulfoLink coupling resin (Thermo Fisher, catalogue number 20401) according to the manufacturer’s instructions. The prepared beads were then mixed with Assay Buffer containing the fluorescently labelled protein as well as additional components indicated in the text, and the resulting bead suspensions were transferred to a 384-well glass-bottomed plate (Cellvis, P384-1.5H-N). GST-fusion proteins were instead mixed with glutathione agarose 4B (Prometheus, 20-543) in Assay Buffer containing the fluorescently labelled protein and additional components indicated in the text; the resulting bead suspensions were then transferred to a glass-bottomed plate as above. The plates were incubated at RT for the durations specified in the text and directly imaged on the spinning-disk confocal platform described earlier for peroxisomal import reactions in Xenopus egg extract. Note that imaging the beads directly in the binding reaction preserves the equilibrium and thereby allows even weak interactions to be detected. Fluorescence was collected through a Nikon ×10 0.45 NA Plan Apo air objective, and images were acquired using the Nikon NIS-Elements software and a 16-bit digitizer without binning. Imaging parameters were configured to maximize the SNR while avoiding saturation. […]

[4] = test system: PEX39–PEX7 complex and PTS2–GFP cargo; test: Bead-binding assay: recruitment of PTS2–GFP to PEX7- or PEX39-coated beads (Fig. 7b,c); set-up: species or system yeast (S. cerevisiae)
Source text: as §1

[5] = test system: PEX7–receptor–cargo complex on PEX39-coated beads; test: Bead-binding assay: recruitment of PEX7–receptor–cargo complex to PEX39-coated beads (Fig. 7d, 8a); set-up: species or system yeast (S. cerevisiae); conditions: no peptide, Fig. 7d
Source text: Cysteine-containing peptides were covalently conjugated to thiol-reactive SulfoLink coupling resin (Thermo Fisher, catalogue number 20401) according to the manufacturer’s instructions. The prepared beads were then mixed with Assay Buffer containing the fluorescently labelled protein as well as additional components indicated in the text, and the resulting bead suspensions were transferred to a 384-well glass-bottomed plate (Cellvis, P384-1.5H-N). GST-fusion proteins were instead mixed with glutathione agarose 4B (Prometheus, 20-543) in Assay Buffer containing the fluorescently labelled protein and additional components indicated in the text; the resulting bead suspensions were then transferred to a glass-bottomed plate as above. The plates were incubated at RT for the durations specified in the text and directly imaged on the spinning-disk confocal platform described earlier for peroxisomal import reactions in Xenopus egg extract. Note that imaging the beads directly in the binding reaction preserves the equilibrium and thereby allows even weak interactions to be detected. Fluorescence was collected through a Nikon ×10 0.45 NA Plan Apo air objective, and images were acquired using the Nikon NIS-Elements software and a 16-bit digitizer without binning. Imaging parameters were configured to maximize the SNR while avoiding saturation. Samples intended to be compared were imaged using identical acquisition settings.

B1: PEX39 (WT): PEX39 from S. cerevisiae (GenBank accession no. NP_012546.4) (protein)
chain: MAAGGELSYEELLDHILNNKPIPNIVEVPNVTLDEGLASTPSLRPRPRPWEGQLQHQSHQGSLDKPNISLDIDQESLEGMTSLTRLSECYDIQSKLQINDSDNDNDDNNNDNNKGDGNDDDNNTVTANPTAR
modifications: left off: GST, N-terminal, cleaved
[1]; PEX7–GFP alone or with PTS2 peptide and PEX5S
  Effect on influx of PEX7–GFP into YG hydrogel: blocked the influx of PEX7–GFP alone as well as PEX7–GFP in the presence of a PTS2 peptide and PEX5S
[1]; PEX7–GFP in complex with PTS2 peptide and PEX5-21
  Effect on influx of PEX7–GFP into YG hydrogel, PEX5-21 complex: much less inhibitory
[1]; PEX39 1×, replicate 1
  Percent PEX7-GFP influx (+ PTS2 peptide + PEX5-21): 66.880%
  Percent PEX7-GFP influx (+ PTS2 peptide + PEX5S): 23.191%
  Percent PEX7-GFP influx: 49.645%
[1]; PEX39 1×, replicate 2
  Percent PEX7-GFP influx (+ PTS2 peptide + PEX5-21): 83.899%
  Percent PEX7-GFP influx (+ PTS2 peptide + PEX5S): 21.558%
  Percent PEX7-GFP influx: 60.527%
[1]; PEX39 1×, replicate 3
  Percent PEX7-GFP influx (+ PTS2 peptide + PEX5-21): 114.523%
  Percent PEX7-GFP influx (+ PTS2 peptide + PEX5S): 32.481%
  Percent PEX7-GFP influx: 62.401%
[1]; PEX39 2×, replicate 1
  Percent PEX7-GFP influx (+ PTS2 peptide + PEX5-21): 50.795%
  Percent PEX7-GFP influx (+ PTS2 peptide + PEX5S): 5.154%
  Percent PEX7-GFP influx: 14.576%
[1]; PEX39 2×, replicate 2
  Percent PEX7-GFP influx (+ PTS2 peptide + PEX5-21): 68.223%
  Percent PEX7-GFP influx (+ PTS2 peptide + PEX5S): 5.013%
  Percent PEX7-GFP influx: 15.433%
[1]; PEX39 2×, replicate 3
  Percent PEX7-GFP influx (+ PTS2 peptide + PEX5-21): 111.257%
  Percent PEX7-GFP influx (+ PTS2 peptide + PEX5S): 4.961%
  Percent PEX7-GFP influx: 14.730%
[1]; PEX39 4×, replicate 1
  Percent PEX7-GFP influx (+ PTS2 peptide + PEX5-21): 53.842%
  Percent PEX7-GFP influx (+ PTS2 peptide + PEX5S): 2.693%
[1]; PEX39 4×, replicate 2
  Percent PEX7-GFP influx (+ PTS2 peptide + PEX5-21): 47.057%
  Percent PEX7-GFP influx (+ PTS2 peptide + PEX5S): 2.263%
[1]; PEX39 4×, replicate 3
  Percent PEX7-GFP influx (+ PTS2 peptide + PEX5-21): 58.495%
  Percent PEX7-GFP influx (+ PTS2 peptide + PEX5S): 2.329%
[1]; PEX39 at 4× molar ratio, replicate 1
  Percent PEX7-GFP influx: 7.357%
[1]; PEX39 at 4× molar ratio, replicate 2
  Percent PEX7-GFP influx: 5.802%
[1]; PEX39 at 4× molar ratio, replicate 3
  Percent PEX7-GFP influx: 7.696%
[2]
  Effect on influx of PEX5–GFP into YG hydrogel: did not prevent the influx of PEX5–GFP
[3]
  Recruitment / binding of PEX7 in words: could recruit PEX7–GFP
[4]
  Recruitment of PTS2–GFP cargo to PEX39–PEX7: PTS2–GFP cargo was indeed recruited to PEX7-coated beads in the presence of PEX39
[5]
  Recruitment of PEX7–PEX5-21–PTS2–GFP complex to PEX39-coated beads: could be recruited to beads coated with wild-type PEX39

Reference: publication PMC12173945, “Import mechanism of peroxisomal proteins with an N-terminal signal sequence” (Nature Cell Biology, 2025)
